Reference: patent publication US20080182978A1, “ANTI-NGF ANTIBODIES AND METHODS USING SAME” (RINAT NEUROSCIENCE CORP, priority 2002, published 2008)

B1: E3: humanized, affinity matured anti-NGF antagonist antibody; variable regions SEQ ID NO:1 and 2; human IgG2a (A330P331 to S330S331), kappa (antibody, V domains shown)
VH: QVQLQESGPGLVKPSETLSLTCTVSGFSLIGYDLNWIRQPPGKGLEWIGIIWGDGTTDYNSAVKSRVTISKDTSKNQFSLKLSSVTAADTAVYYCARGGYWYATSYYFDYWGQGTLVTVS
VL: DIQMTQSPSSLSASVGDRVTITCRASQSISNNLNWYQQKPGKAPKLLIYYTSRFHSGVPSRFSGSGSGTDFTFTISSLQPEDIATYYCQQEHTLPYTFGQGTKLEIKRT
modifications: human IgG2a constant (A330S/P331S) and kappa constant missing

Tested on: complete Freund's adjuvant (CFA)-induced chronic arthritis
Assay: CFA arthritis rats, arthritis index (inflammation score)
Assay type: in vivo, rat
Settings: for change of arthritis index compared to vehicle-treated arthritic group: E3 1 mg/kg or 911 10 mg/kg i.v. D14+D19, indomethacin 3 mg/kg/day p.o.; for arthritis index (score): arthritic rats
Procedure: Five groups of 10 animals (5-weeks old male Lewis rats-LEWIS Lew/Ico, from Charles River Laboratories—Belgium) each were included in this study: Group 1: non arthritic rats/saline (vehicle), i.v. bolus, n=10; Group 2: arthritic rats/saline (vehicle), i.v. bolus, n=10; Group 3: arthritic rats/Indomethacin 3 mg/kg, p.o daily over 10 days, n=10; […]; Group 5: arthritic rats/911, 10 mg/kg, i.v. bolus, n=10. The doses were expressed in terms of free active substance (mg/kg). E3 and 911 were extemporaneously prepared in saline from the stock solution to the desired concentration. […]. All diluted solutions (before i.v. injection) were sterilized using a sterile filter unit of 0.20.μm. pH and osmolarity values of diluted solutions were measured before each i.v. injection. Before the first i.v., osmolarity (mosm/L) for saline, E3, and 911 were 278, 269, and 308 respectively; pH for saline, E3, and 911 were 5.93, 6.76, 6.71 respectively. Before the second i.v., osmolarity (mosm/L) for saline, E3, and 911 were 280, 270, and 309 respectively; pH for saline, E3, and 911 were 5.86, 6.72, and 6.59 respectively.
E3 or 911 or saline were administered by i.v. bolus injection on Day 14 and Day 19 after arthritis induction in a coded and random order with a volume of 5 mL/kg. The non arthritic group was given by i.v. bolus injection of saline on Day 14 and Day 19 with a volume of 5 mL/kg. Indomethacin was extemporaneously prepared in 1% methylcellulose. Indomethacin was administered by oral route (p.o.) once daily over 10 days from Day 14 to Day 23 after arthritis induction in a coded and random order with a volume of 10 mL/kg.
Arthritis index was evaluated using an inflammation score for each hind and forepaw (arthritic rats): Score 0: normal aspect; Score 1: erythema; Score 2: erythema with slight edema; Score 3: strong inflammation without ankylosis; Score 4: ankylosis. This evaluation was performed at the following times (after induction of arthritis): Day 14 (before i.v. bolus or p.o. administration); and Day 24 (5 days after the last i.v. bolus injection or 24 h after the last p.o. administration). All measurements were performed between 2:00 and 3:00 pm (D 14), 8:00 and 9:00 am (D 24). All the data were collected and stored by the WinDas software.
All results were reported as Mean ±S.E.M. of 10 rats in each group at each time point. Paw volume was expressed in ml calculated from the mean value of the right and left paw volume. Arthritis index was calculated from the sum of the score obtained for each of the 4 paws. The nociceptive response was evaluated by the intensity of the level of vocalization recorded for each animal (mean of 4 values: 2 times/paw) in mV. The percentage inhibition of the nociceptive response was calculated from the mean value of the vehicle-treated arthritic group [(mean value of vehicle-treated arthritic group−mean value of treated arthritic group/mean value of vehicle-treated arthritic group)*100]. Body weight was expressed in grams. Hindpaws (left and right) weight was expressed in grams. Cytokine levels (IL-6, IL-1β, TNF-α and TGF-β1) of each hind paw was expressed in pg/ml. Circulating levels of TGF-β1 was expressed in pg/ml. Radiological index for each parameter (demineralization, erosions, periostal reaction, soft tissue damage, space joint, osteogenesis deformity) and total radiological index (total score) were calculated from the sum of the scores obtained for each parameter. The inter-group significances of the deviations between the values of vehicle-treated group (arthritic rats) and vehicle-treated group (non arthritic rats) were assessed by the Student t test or Mann-Whitney Rank Sum Test when equal variance or normality test failed. The inter-group significances of the deviations between the values of vehicle-treated group (arthritic rats) and E3- and 911- and Indomethacin-treated groups were assessed by the 1-way analysis of variance ANOVA followed by the non-paired Dunnett t test. […]

Row | Molecule | change of arthritis index compared to vehicle-treated arthritic group (D24) | arthritis index (score) (D14 (before dosing)) | anti-inflammatory effects in arthritis model (conclusion) (E3 1 mg/kg i.v., 911 10 mg/kg i.v., D14+D19) | arthritis index (score) (E3 1 mg/kg or 911 10 mg/kg i.v. D14+D19, indomethacin 3 mg/kg/day p.o. 10 days, D24)
1 | COc1ccc2c(c1)c(CC(=O)O)c(C)n2C(=O)c1ccc(Cl)cc1 [Indomethacin, reference compound] | about −8.0 | 8.7±0.6 |  | 
2 | B1 | did not affect the arthritis index | 10.2±0.4 | did not show significant anti-inflammatory effects | 11.4±0.4
